Laboratory results as given in paper PMC13694701 (2026).

Columns and labels:
TRIM62 PRY-SPRY = TRIM62 PRY-SPRY (Homo sapiens, UniProt Q9BVG3); assay: MST
TRIM62 = TRIM62 (Homo sapiens, UniProt Q9BVG3); assay: MST
Sequence of TRIM62 (Q9BVG3 whole entry): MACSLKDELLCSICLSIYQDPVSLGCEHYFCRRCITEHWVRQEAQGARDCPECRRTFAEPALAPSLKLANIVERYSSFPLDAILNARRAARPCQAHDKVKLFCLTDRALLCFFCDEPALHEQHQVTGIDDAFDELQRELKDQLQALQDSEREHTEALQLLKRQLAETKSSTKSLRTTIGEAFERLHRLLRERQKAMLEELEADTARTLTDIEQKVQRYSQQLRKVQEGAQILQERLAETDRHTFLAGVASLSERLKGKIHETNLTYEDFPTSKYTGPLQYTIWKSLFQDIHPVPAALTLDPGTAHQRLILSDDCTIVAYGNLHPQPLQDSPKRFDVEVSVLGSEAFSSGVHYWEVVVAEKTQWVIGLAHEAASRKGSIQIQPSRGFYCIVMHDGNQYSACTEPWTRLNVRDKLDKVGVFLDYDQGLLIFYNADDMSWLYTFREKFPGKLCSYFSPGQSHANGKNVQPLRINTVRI

Sequence of TRIM62 PRY-SPRY (Q9BVG3 277-475): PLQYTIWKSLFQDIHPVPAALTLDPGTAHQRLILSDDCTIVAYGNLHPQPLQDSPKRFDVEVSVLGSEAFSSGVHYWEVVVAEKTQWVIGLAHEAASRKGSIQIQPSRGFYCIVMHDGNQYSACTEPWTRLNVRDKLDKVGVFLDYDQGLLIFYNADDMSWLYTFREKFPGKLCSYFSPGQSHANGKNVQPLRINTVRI

Kd (TRIM62 PRY-SPRY): 44.9 µM
Kd (TRIM62): 0.4 µM
B1: FAM21 1-356 (protein)
chain: MMNRTTPDQELVPASEPVWERPWSVEEIRRSSQSWSLAADAGLLQFLQEFSQQTISRTHEIKKQVDGLIRETKATDCRLHNVFNDFLMLSNTQFIENRVYDEEVEEPVLKAEAEKTEQEKTREQKEVDLIPKVQEAVNYGLQVLDSAFEQLDIKAGNSDSEEDDANGRVELILEPKDLYIDRPLPYLIGSKLFMEQEDVGLGELSSEEGSVGSDRGSIVDTEEEKEEEESDEDFAHHSDNEQNQHTTQMSDEEEDDDGCDLFADSEKEEEDIEDIEENTRPKRSRPTSFADELAARIKGDAMGRVDEEPTTLPSGEAKPRKTLKEKKERRTPSDDEEDNLFAPPKLTDEDFSPFGS
